According to patent US12194082B2, “Compositions and methods for treatment of homocystinuria” (THE REGENTS OF THE UNIVERSITY OF COLORADO, priority 2016, dated 2025):
Like-named read-outs stand apart in the source and are kept apart here.

Key:
Hcy, Cth, Cys [1] = assay: Plasma metabolites in I278T mice of the eye study; assay type: in vivo; settings: 7.5 mg/kg SC 3x/week
Experimental: The changes in metabolite levels in plasma were measured in I278T (+/−) healthy heterozygous control mice, untreated −/− affected homozygous control mice, and 20NHS PEG-htCBS C15S-treated −/− homozygous I278T mice. The 20NHS PEG-htCBS C15S (C15S/ME-200GS)-treated mice were administered 7.5 mg/kg subcutaneously (SC) 3 times per week from the age of 2 days up to the age of 4 months. Levels measured beginning at 72 hours after the injection as mice were on the treatment from 2 days of age.

[2] = cynomolgus monkey, in vivo
Experimental: The pharmacokinetic (PK) parameters were calculated using a non-compartmental curve stripping model which resolves a curve into a series of exponential terms corresponding to the absorption, distribution and elimination phases occurring during the time course of the enzyme in the blood. The curve stripping approach assumes that the disposition phases of the drug follow apparent first-order kinetics, which is evidenced by the linearity in the terminal portion of a semi-log plot. These calculations were made using a modeling program called PK Solutions 2.0 (Summit Solutions, Montrose, CO) using the mean plasma enzyme activity for each route of administration. The bioavailability was calculated by dividing the area under the curve (AUC) for the SC or IP route by the AUC observed after IV administration.
For the single dose PK study, three experimental groups of 4 (n=2M+2F) monkeys each were used to conduct the experiments. The first group received 2 mg/kg 20NHS PEG-htCBS C15S via IV injection. Blood was collected at 0, 0.083, 0.16, 0.25, 0.5, 1, 2, 4, 8, 24, 72, 120, and 192 hours post IV injection. The second and third groups received either 2 mg/kg or 6 mg/kg 20NHS PEG-htCBS C15S via SC injection. Blood was collected at 0, 1, 2, 4, 8, 24, 48, 72, 96, 120, 192, 240, and 336 hours post SC injection.

[3] = Pharmacokinetics of PEGylated htCBS C15S in HO mice (plasma CBS activity); assay type: in vivo
Experimental: For 20NHS PEG-htCBS C15S, HO mice were administered SQ a dose of 5, 10 or 15 mg/kg dose or were administered IV a dose of 10 mg/kg. For 400MA-htCBS C15S, HO mice received a single dose of 10 mg/kg either SC or IV of one of the three forms: (i) a mixture of all species, where no separation of individual forms has been attempted (mix), (ii) a homoPEGylated specie (Peak 1), and (iii) a hetero/hemiPEGylated species (Peak 2).
Both male and female HO mice were used in this example, and each group contained 3 to 4 mice. Two groups of mice designated “A” and “B” were used for each route of administration to minimize the blood volume taken from any one mouse. For SC administration, blood was collected from group A at 0.5, 3, 24, and 72 hours post-injection and from group B at 1, 6, 48, and 96 hours post-injection. For IV administration, blood was collected from group A at 0.25, 1, 6, and 48 hours post-injection and from group B at 0.5, 3, 24, and 72 hours post-injection.

I278T mice = assay: Eye defects (ciliary zonule) in I278T mice; assay type: in vivo, mouse; settings: 7.5 mg/kg SC 3x/week from 2 days to 4 months of age
Experimental: Mice were subjected to perfusion fixation with 4% paraformaldehyde in 1×PBS pH 7.4 (4% PFA) to preserve the walls of the eye globe. Eyes were carefully surgically removed, submerged into 4% PFA and a small hole was carefully made in the posterior globe of the eye right below the optic nerve to allow the fixative to permeate to the interior of the eye and fixate the structures overnight at 4° C. The samples were washed 3 times using filtered 1×PBS pH 7.4. After washing, the posterior globe of the eye was carefully dissected down to the level of the ciliary epithelium to expose the ciliary zonule. The sample was placed in 8% BSA blocking solution for 2 hours with shaking. After blocking, MAGP1 antibodies (Sigma) diluted 1:50 in 4% BSA were added to the sample and stored at 4° C. overnight. The next day, the sample was washed 6 times using 1×PBS pH 7.4, and Alexa 488 secondary antibodies (1:200, Invitrogen) were added to the sample and incubated for 2 hours at room temperature with shaking. […]
The changes in metabolite levels in plasma were measured in I278T (+/−) healthy heterozygous control mice, untreated −/− affected homozygous control mice, and 20NHS PEG-htCBS C15S-treated −/− homozygous I278T mice. […] Levels measured beginning at 72 hours after the injection as mice were on the treatment from 2 days of age.

Hcy, Cth, Cys [4] = assay: Plasma metabolites in KO mice of the DEXA study; assay type: in vivo
Experimental: In 20NHS PEG-htCBS C15S-treated KO mice, the plasma levels of Hcy, Cth, and Cys were measured biweekly over the course of the study and are shown in FIG. 16F. […] The level of Cys (top line) normalized with the treatment from less than 100 μM at day […] to about 200 μM at day 45 and sustained over the course of the study. The level of Cth (bottom line) oscillated around 50 μM throughout the duration of the study.
Plasma metabolites were determined using the same mice/groups as described above. The end-point levels of metabolites Hcy, Cth, Cys, and Met were determined 24 hours after the last injection to the 20NHS PEG-htCBS C15S-treated KO mice (right bar for each metabolite) and compared with untreated healthy +/− (left bar) and affected −/− KO mice (middle bar), as shown in FIG. 16G. Table 20 provides the P-values used to determine significance for the differences in metabolite levels in the treated group compared to the two control groups.

## 20NHS PEG-htCBS C15S: htCBS C15S PEGylated with ME-200GS PEG (20 kDa linear NHS ester-activated PEG)
Hcy, Cth, Cys [1]; throughout the study
  plasma Cth: around 50 μM
  plasma Cys: around 230 μM
Hcy, Cth, Cys [1]; decreased from 230 μM
  plasma Hcy: about 70 μM
[2]; iv, 2 mg/kg
  AUC0-t/dose: 2971 ± 78 mU-h/μl/(mg/kg)
[2]; sc
  AUC/dose: 2744 (mU-h/mL)/(mg/kg)
  cmax/dose: 20 (mU/μL)/(mg/kg)
  elimination half-life (T1/2): 73 h
[2]; sc, 2 mg/kg
  AUC0-t/dose: 2761 ± 160 mU-h/μl/(mg/kg)
  cmax/dose: 20.4 ± 1.0 mU/μl/(mg/kg)
  t1/2-A: 7.9 ± 1.0 h
  t1/2-E: 72.9 ± 1.1 h
[2]; sc, 6 mg/kg
  AUC0-t/dose: 2727 ± 119 mU-h/μl/(mg/kg)
  cmax/dose: 19.2 ± 1.3 mU/μl/(mg/kg)
  t1/2-A: 9.7 ± 1.0 h
  t1/2-E: 72.8 ± 1.7 h
[3]; 10 mg/kg IV
  E Half-life: 47.6 ± 14.6 h
[3]; mouse, in vivo
  average circulating time of a single enzyme molecule (MRT): 44 to 194 h
[3]; mouse, in vivo, iv, 10 mg/kg
  AUC(0-t) (obs area): 7431 ± 154 mU-hr/μL
  CL (obs area): 1346 ± 27.3 µL/h
  MRT (area): 52 ± 13 h
  cmax (obs): 371.6 ± 11.2 mU/μL
[3]; mouse, in vivo, sc
  AUC/dose: 612 (mU-h/mL)/(mg/kg)
  T1/2: 20 h
  absorption half-life: 5 to 12 h
  bioavailability in HO mice: 52-83%
  cmax/dose: 10 (mU/μL)/(mg/kg)
  tmax: 24 h
[3]; mouse, in vivo, sc, 5 mg/kg
  A Half-life: 5.3 ± 1.1 h
  AUC in mice: 3060 mU−h/mL
  CL (obs area): 1636 ± 86 µL/h
  E Half-life: 137 ± 95 h
  MRT (area): 194 ± 128 h
  cmax/dose: 10.3
[3]; mouse, in vivo, sc, 10 mg/kg
  A Half-life: 12.7 ± 0.6 h
  Bioavailability: 64.6%
  CL (obs area): 2113 ± 280 µL/h
  E Half-life: 17.5 ± 1.27 h
  MRT (area): 44.8 ± 1.7 h
  cmax (obs): 89.9 ± 10.2 mU/μL
  cmax/dose: 9.0
[3]; mouse, in vivo, sc, 15 mg/kg
  A Half-life: 11.9 ± 1.2 h
  Bioavailability: 51.6%
  CL (obs area): 2609 ± 72 µL/h
  E Half-life: 22.0 ± 1.7 h
  MRT (area): 49.0 ± 1.4 h
  cmax (obs): 104.2 ± 11.3 mU/μL
  cmax/dose: 6.9
  half-life determinations in the SC dose groups: 17.5 to 137 h
I278T mice
  eye defects (zonular fibers): positive effect on the eye defects
Hcy, Cth, Cys [4]; during treatment, from about 180 μM
  plasma Hcy: about 90 μM
Hcy, Cth, Cys [4]; during treatment, from less than 100 μM
  plasma Cys: about 200 μM
Hcy, Cth, Cys [4]; throughout the study
  plasma Cth: around 50 μM
